Source: patent US20180118841A1 (published 2018)

T1: CTLA-4 (BMS, Orencia) (human)
T1 chain: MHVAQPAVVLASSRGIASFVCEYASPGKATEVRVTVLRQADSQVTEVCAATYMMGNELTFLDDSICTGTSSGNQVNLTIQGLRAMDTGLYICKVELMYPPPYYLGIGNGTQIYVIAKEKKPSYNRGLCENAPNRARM


Key:
CTLA-4 (BMS, Orencia) = biological target: T1, CTLA-4 (BMS, Orencia); test: cell-based or functional assay
[1] = biological target: CD137 on primary human CD8+ T cells (human, UniProt Q07011 24-255); test: cell-based or functional assay
[2] = biological target: T2, CD137 human/mouse chimera 1554 (human; mouse, UniProt P20334 96-159, limits assumed); test: FACS, 293-F transfectants; MFI/isotype, normalized to full-length CD137
T2 construct: domain: 3B, 4A and 4B; On 293-F cells; Human ranges derived from the printed mouse range; also called 1411
T2 sequence (P20334 other isoform, or with tags, fused parts or gaps mutant limits assumed): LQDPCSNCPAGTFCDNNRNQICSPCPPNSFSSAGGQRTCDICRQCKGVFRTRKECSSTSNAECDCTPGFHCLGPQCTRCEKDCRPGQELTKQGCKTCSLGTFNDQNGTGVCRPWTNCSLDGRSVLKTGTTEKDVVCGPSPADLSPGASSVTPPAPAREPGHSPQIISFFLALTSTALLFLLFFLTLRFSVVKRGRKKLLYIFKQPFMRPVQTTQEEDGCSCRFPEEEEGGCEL

Chain of CD137 on primary human CD8+ T cells (Q07011 24-255 limits assumed): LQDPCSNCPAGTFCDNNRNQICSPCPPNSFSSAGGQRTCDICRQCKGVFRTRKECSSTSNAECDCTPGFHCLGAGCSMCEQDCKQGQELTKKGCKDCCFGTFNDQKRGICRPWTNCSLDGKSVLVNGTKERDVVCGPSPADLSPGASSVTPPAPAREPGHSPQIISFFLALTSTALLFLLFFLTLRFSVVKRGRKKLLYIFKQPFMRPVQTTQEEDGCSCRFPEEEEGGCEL

Row | Mean IL-2 level (pg/ml) induced at 1.5 nM (CTLA-4 (BMS, Orencia)) [pg/mL] | Mean IFN-γ (pg/ml), CD8+ T cell assay [1] [pg/mL] | relative binding [2] | Binder
1 | 3200 |  |  | bispecific OX40/CTLA-4 molecule 1526/1585 (bispecific antibody, human IgG1, kappa) heavy: not shown light: DIQMTQSPSSLSASVGDRVTITCRASQSISSYLNWYQQKPGKAPKLLIYAASSLQSGVPSRFSGSGSGTDFTLTISSLQPEDFATYYCQQYGSDSLLTFGQGTKLEIKRTVAAPSVFIFPPSDEQLKSGTASVVCLLNNFYPREAKVQWKVDNALQSGNSQESVTEQDSKDSTYSLSSTLTLSKADYEKHKVYACEVTHQGLSSPVTKSFNRGECSGGGGSGGGGSAPLKIQAYFNETADLPCQFANSQNLSLSELVVFWQDQENLVLNEVYLGKERFDSVDSKYMGRTSFDSDSWTLRLHNLQIKDKGRYQCIIHHKKPTGMINIHQMNSELSVLA
2 |  | 64400 | 0.73 | anti-CD137 antibody 1204/1205 (antibody, IgG1, V domains shown, Produced as IgG; IgG1 format stated for the T cell assay) VH: EVQLLESGGGLVQPGGSLRLSCAASGFTFSSYYMGWVRQAPGKGLEWVSGIGSYYGYTGYADSVKGRFTISRDNSKNTLYLQMNSLRAEDTAVYYCARAYYDYNYYYAYFDYWGQGTLVTVSS VL: DIQMTQSPSSLSASVGDRVTITCRASQSISSYLNWYQQKPGKAPKLLIYAASSLQSGVPSRFSGSGSGTDFTLTISSLQPEDFATYYCQQSVPHYPFTFGQGTKLEIK
